Literature values in patent publication US10709784B2, “Metal chelating compositions and methods for controlling the growth or activities of a living cell or organism” (CHELATION PARTNERS INCORPORATED, priority 2011, dated 2020).

Details: comparison value, molecular weight 80 kDa/mole

B1: lactoferrin: iron binding defence protein, molecular weight 80 kDa/mole (protein, UniProt P02788 20-710, looked up)
Lactotransferrin: GRRRSVQWCAVSQPEATKCFQWQRNMRKVRGPPVSCIKRDSPIQCIQAIAENRADAVTLDGGFIYEAGLAPYKLRPVAAEVYGTERQPRTHYYAVAVVKKGGSFQLNELQGLKSCHTGLRRTAGWNVPIGTLRPFLNWTGPPEPIEAAVARFFSASCVPGADKGQFPNLCRLCAGTGENKCAFSSQEPYFSYSGAFKCLRDGAGDVAFIRESTVFEDLSDEAERDEYELLCPDNTRKPVDKFKDCHLARVPSHAVVARSVNGKEDAIWNLLRQAQEKFGKDKSPKFQLFGSPSGQKDLLFKDSAIGFSRVPPRIDSGLYLGSGYFTAIQNLRKSEEEVAARRARVVWCAVGEQELRKCNQWSGLSEGSVTCSSASTTEDCIALVLKGEADAMSLDGGYVYTAGKCGLVPVLAENYKSQQSSDPDPNCVDRPVEGYLAVAVVRRSDTSLTWNSVKGKKSCHTAVDRTAGWNIPMGLLFNQTGSCKFDEYFSQSCAPGSDPRSNLCALCIGDEQGENKCVPNSNERYYGYTGAFRCLAENAGDVAFVKDVTVLQNTDGNNNEAWAKDLKLADFALLCLDGKRKPVTEARSCHLAMAPNHAVVSRMDKVERLKQVLLHQQAKFGRNGSDCPDKFCLFQSETKNLLFNDNTECLARLHGKTTYEKYLGPQYVAGITNLKKCSTSPLLEACEFLRK
For B1, the “Fe bound per mole” value is listed as 2 atoms of Fe/mole.
